This is an account of results in US9212226B2, “Amino acid sequences directed against CXCR4 and other GPCRs and compounds comprising the same” (Ablynx N.V., priority 2008, dated 2015).

“Also recorded” adds a separate entry of the source.

One assay concerns the target histamine H4 receptors (Homo sapiens, UniProt Q9H3N8). The experiment in a line: CRE/β-galactosidase reporter gene selectivity screen, histamine H4 receptor. The settings on record: up to 2.5, forskolin 3 μM, agonist at 50-80% Emax. The class given is cell-based.
For the next assay, the target named is CXCR4 (N119A) (Homo sapiens, UniProt P61073, N119A). Kind of assay: Basal inositol phosphate accumulation in HEK293T cells expressing CXCR4 (N119A). Type of assay: cell-based. The following applies: ligand-induced alteration of basal inositol phosphate accumulation. The procedure: HEK293T cells were maintained at 37° C. in a humidified 5% CO2, 95% air atmosphere in Dulbecco's modified Eagle's medium (DMEM) containing 2 mM L-glutamine, 50 IU/ml penicillin, 50 μg/ml streptomycin, and 10% (v/v) fetal calf serum. Jurkat cells were cultured in a humidified 5% CO2, 95% air atmosphere in a 1:1 mixture of Dulbecco's modified Eagle's medium (DMEM) and Ham's F12 medium containing 2 mM L-glutamine, 50 IU/ml penicillin, 50 μg/ml streptomycin, and 10% (v/v) fetal calf serum. […] [^125 I]-Labelling— Radiolabeling of Nanobodies with ^125I was performed using the Iodo-gen method (Pierce, Rockford, Ill.) according to the manufacturer's protocol. ^125I-labeled Nanobodies was separated from free iodine (>99%) using a Sephadex G-25 gel filtration column (Amersham Biosciences, Piscataway, N.J.). […] Competition Binding Assays— Membranes from HEK293T cells transiently expressing CXCR3 or CXCR4 were prepared 48 h after transfection as follows. Cells were washed and scraped from the cell culture dishes with ice-cold PBS containing 1 mm EDTA. The scraped cells were pelleted at 1500×g for 10 min at 4° C. The pellet was washed and then resuspended in ice-cold membrane buffer (15 mM Tris, pH 7.5, 1 mM EGTA, 0.3 mM EDTA, and 2 mM MgCl2). The cell suspension was homogenized by 10 strokes at 1200 rpm using a Teflon-glass homogenizer and rotor and further subjected to three freeze-thaw cycles using liquid nitrogen. Membranes were separated by centrifugation at 40,000 g for 25 min at 4° C. The membrane pellet was washed and resuspended in ice-cold Tris-sucrose buffer (20 mM Tris, pH 7.4, and 250 mM sucrose) and frozen in liquid nitrogen. The total protein was determined using a Bradford assay (Bio-Rad). Periplasmas (1:10) or ligands were pre-incubated with membranes in binding buffer (50 mM HEPES (pH 7.4), 1 mM CaCl2, 5 mM MgCl2, 100 mM NaCl, 0.5% bovine serum albumin) supplemented with 0.5% BSA for 1 h at 22° C. before the addition of [^125I]-CXCL12 (40 pM) or [^125I]-238D2 (3 nM) or [^125I]-238D4 (3 nM) for additional 2 h at 22° C. […] Membranes were then harvested over polyethylenimine (0.5%)-treated Whatman GF/C filter plates and washed three times with ice cold binding buffer containing 500 mM NaCl. Plates were counted by liquid scintillation. Inositol Phosphate Accumulation Assay— 24 hours post transfection with pcDNA3.1-CXCR4 and pcDNA1-HA-mG {alpha} qi5 (see Verzijl et al, 2008 supra), 250.000 cells were seeded into 24-wells plates and labelled overnight using inositol-free minimal essential medium supplemented with 1 μCi myo-[2-^3H]-inositol. The next day, the cells were washed once to remove not incorporated myo-[2-^3H]-inositol. […] In agonist experiments, the cells were directly stimulated with test compounds and LiCl (10 mM) in assay buffer for 2 h at 37° C. The stimulation was stopped by aspirating the stimulation medium and adding ice-cold 10 mM formic acid. The accumulated inositol phosphates were isolated by anion exchange chromatography and counted by liquid scintillation. CRE Reporter Gene Assay— HEK239T cells were transfected with pCRE/β-galactosidase (Chen W, Shields T S, Stork P J S, Cone R D (1995) Anal Biochem 226:349-354) and plasmids (pcDEF3 or pcDNA3.1) encoding the indicated receptors. 40,000 transfected cells per well were seeded into 96 well plates and grown in DMEM supplemented with 10% fetal calf serum. The medium was replaced 32 h after transfection by serum-free DMEM supplemented with 0.5% bovine serum albumin and ligands as indicated. […]
Sequence of CXCR4 (N119A) (P61073 whole entry N119A): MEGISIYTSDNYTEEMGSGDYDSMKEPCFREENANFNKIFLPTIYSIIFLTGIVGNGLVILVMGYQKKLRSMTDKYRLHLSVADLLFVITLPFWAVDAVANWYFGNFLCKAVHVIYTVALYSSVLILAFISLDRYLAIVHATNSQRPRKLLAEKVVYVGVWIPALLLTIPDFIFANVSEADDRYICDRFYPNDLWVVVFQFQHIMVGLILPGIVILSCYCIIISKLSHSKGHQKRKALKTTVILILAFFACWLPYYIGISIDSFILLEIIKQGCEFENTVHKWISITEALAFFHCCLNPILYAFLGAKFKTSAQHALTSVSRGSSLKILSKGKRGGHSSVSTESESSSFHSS

The target in another assay is CXCR4 (Homo sapiens, UniProt P61073). Kind of assay: Phage ELISA binding assay on CHO-CXCR4 versus CHO membranes. Set-up: expressed in transfected cells; host or cells: CHO cells (membrane preparation). The following applies: monoclonal phages, CHO-CXCR4 vs CHO membranes. The procedure:
FIG. 2. Results from Phage ELISA (as described in example 1.5).
In order to determine binding specificity of the Nanobodies, 15 ul of the produced phage were tested in an Phage ELISA binding assay.
In short, 2 ug in 100 ul PBS of membrane expressing either CXCR4 (CHO-CXCR4) or a non relevant GPCR(CHO) were coated directly on Maxisorp microtiter plates (Nunc) overnight at 4 C. Free binding sites were blocked using 4% Marvel in PBS for 1 h. Next, 15 ul of monoclonal phages was added in 100 ul 1% Marvel PBS for 2 hours. […] Binding specificity (binding to CHO-CXCR4) was determined based on OD values compared to controls (binding to CHO).

Sequence of histamine H4 receptors (Q9H3N8 whole entry): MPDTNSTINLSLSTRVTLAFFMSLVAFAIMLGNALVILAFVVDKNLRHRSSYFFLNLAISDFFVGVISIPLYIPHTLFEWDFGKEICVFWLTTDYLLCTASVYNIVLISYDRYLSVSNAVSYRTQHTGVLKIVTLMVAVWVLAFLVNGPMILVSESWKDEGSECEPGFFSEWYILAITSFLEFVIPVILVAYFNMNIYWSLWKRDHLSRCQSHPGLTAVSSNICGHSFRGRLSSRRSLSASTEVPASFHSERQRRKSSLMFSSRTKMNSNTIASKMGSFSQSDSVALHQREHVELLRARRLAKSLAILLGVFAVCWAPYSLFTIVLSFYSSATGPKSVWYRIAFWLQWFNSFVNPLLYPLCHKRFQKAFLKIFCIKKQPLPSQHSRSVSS
Sequence of CXCR4 (P61073 with tags, fused parts or gaps isoform P61073-2 limits assumed): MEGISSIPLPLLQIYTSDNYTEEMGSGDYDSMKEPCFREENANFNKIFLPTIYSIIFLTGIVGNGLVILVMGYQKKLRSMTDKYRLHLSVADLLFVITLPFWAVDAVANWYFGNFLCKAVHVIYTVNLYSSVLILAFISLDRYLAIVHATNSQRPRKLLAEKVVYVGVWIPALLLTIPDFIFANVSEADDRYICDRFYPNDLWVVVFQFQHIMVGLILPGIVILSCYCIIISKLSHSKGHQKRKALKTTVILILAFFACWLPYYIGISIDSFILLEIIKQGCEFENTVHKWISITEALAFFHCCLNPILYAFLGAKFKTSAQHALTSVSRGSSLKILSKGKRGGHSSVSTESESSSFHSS

B1: 238D4: Nanobody (VHH) raised against human CXCR4, SEQ ID NO: 239 (protein)
VHH: EVQLMESGGGLVQAGGSLRLSCAASGRTFNNYAMGWFRRAPGKEREFVAAITRSGVRSGVSAIYGDSVKDRFTISRDNAKNTLYLQMNSLKPEDTAVYTCAASAIGSGALRRFEYDYSGQGTQVTVSS
modifications: Nanobody, Nanobody constructs or fragments thereof
On to B1, for which the “effect on agonist-induced response at histamine H4 receptors” value with histamine H4 receptors is “do not act as agonists or antagonists; also recorded: do not alter”. Further, in the assay with CXCR4 (N119A), the “functional profile at CXCR4 (N119A)” value is recorded as “inverse antagonists; also recorded: partial inverse agonists”.

B2: 238D2: Nanobody (VHH) raised against human CXCR4, SEQ ID NO: 238 (protein)
VHH: EVQLVESGGGLVQTGGSLRLSCAASGFTFSSYAMSWVRQAPGKGLEWVSGIKSSGDSTRYAGSVKGRFTISRDNAKNMLYLQMYSLKPEDTAVYYCAKSRVSRTGLYTYDNRGQGTQVTVSS
modifications: Nanobody, Nanobody constructs or fragments thereof
For the molecule B2, the “effect on agonist-induced response at histamine H4 receptors” value with histamine H4 receptors is “do not act as agonists or antagonists; also recorded: do not alter”. In addition, the “specificity toward CXCR4 expressing membrane compared to non-expressing membrane” value with CXCR4 is given as “high specificity”. Moreover, the “functional profile at CXCR4 (N119A)” value in the assay with CXCR4 (N119A) is on record as “neutral antagonist; also recorded: Neither significant agonistic nor inverse antagonistic activity”.
